Data from publication PMC9731233.

Legend:
[1] = target: truncated antitoxin PrpA^2–54 (Pseudoalteromonas rubra); experiment: SEC-MALS; purified PrpTA complex, PrpA^FL and PrpA^2–54 samples (Figure 1A); buffer of these runs not told
[2] = target: truncated antitoxin PrpA^2–54 (Pseudoalteromonas rubra); experiment: crystal structure; PrpA^2–54 form I and form II, ~5.2 mg/ml in 0.1 M NaCl, 0.05 M Tris pH 8.0; sitting drop, 16°C; molecular replacement with VcParD2 (PDB 7B22)
[3] = target: truncated antitoxin PrpA^2–54 (Pseudoalteromonas rubra); experiment: SEC-MALS; PrpA^2–54 in phosphate buffer (PB), 100 mM NaH2PO4/Na2HPO4 pH 8.0
[4] = target: truncated antitoxin PrpA^2–54 (Pseudoalteromonas rubra); experiment: SEC-MALS; PrpA^2–54 at increased protein concentration (within a limited range; concentrations not given)
[5] = target: antitoxin PrpA^FL (Pseudoalteromonas rubra); experiment: SEC-MALS; purified PrpTA complex, PrpA^FL and PrpA^2–54 samples (Figure 1A); buffer of these runs not told
[6] = target: antitoxin PrpA^FL (Pseudoalteromonas rubra); experiment: crystal structure; PrpTA complex, ~3.6 mg/ml in 0.1 M NaCl, 0.05 M Tris pH 8.0; sitting drop, 16°C; molecular replacement

| Substance | stoichiometry N [1] | stoichiometry N [2] | stoichiometry N [3] | stoichiometry N [4] | stoichiometry N [5] | stoichiometry N [6] |
| --- | --- | --- | --- | --- | --- | --- |
| truncated antitoxin PrpA^2–54 (domain or fragment) | 2 | 16 | 4 | 6 | – | – |
| antitoxin PrpA^FL (natural protein) | – | – | – | – | 4 | 2 |
